Assay results from patent US20240158538A1.

Biological target: VISTA (analyte in the BLI assay with VSIG-3) (Homo sapiens (Human)) (UniProt Q9H7M9)
Test: BLI (Octet QK384), 100 nM Fc-tagged VSIG-3 on anti-human Fc biosensor, VISTA from 3000 nM in solution

Question: With “Fc-tagged VSIG-3 (from UniProt Q5DX21 23-241) (Fc fusion)” as the substance, how does the Kd read?
Answer: 5.28 µM
